Biological target: the molecule itself
Assay: cryo-EM structure; purified virions in EM buffer (10 mM HEPES pH 7.6, 200 mM NaCl, 5 mM MgCl2, 1 mM KCl, 1 mM CaCl2), icosahedral reconstruction and focussed classification of P domain dimers

B1: murine norovirus (MNV-1 strain CW1P3) major structural protein VP1, wild type (natural protein)
chain: MRMSDGAAPKANGSEASGQDLVPAAVEQAVPIQPVAGAALAAPAAGQINQIDPWIFQNFVQCPLGEFSISPRNTPGEILFDLALGPGLNPYLAHLSAMYTGWVGNMEVQLVLAGNAFTAGKVVVALVPPYFPKGSLTTAQITCFPHVMCDVRTLEPIQLPLLDVRRVLWHATQDQEESMRLVCMLYTPLRTNSPGDESFVVSGRLLSKPAADFNFVYLTPPIERTIYRMVDLPVIQPRLCTHARWPAPVYGLLVDPSLPSNPQWQNGRVHVDGTLLGTTPISGSWVSCFAAEAAYKFQSGTGEVATFTLIEQDGSAYVPGDRAAPLGYPDFSGQLEIEVQTETTKTGDKLKVTTFEMILGPTTNADQAPYQGRVFASVTAAASLDLVDGRVRAVPRSIYGFQDTIPEYNDGLLVPLAPPIGPFLPGEVLLRFRTYMRQIDTADAAAEAIDCALPQEFVSWFASNAFTVQSEALLLRYRNTLTGQLLFECKLYNEGYIALSYSGSGPLTFPTDGIFEVVSWVPRLYQLASVGSLATGRMLKQ
notes: major capsid protein VP1 (ORF2) of murine norovirus MNV-1 strain CW1P3, as it stands in infectious virions; N-terminal region, S domain, P domain (P1, P2); modelled from D20 (A-type), S17 (B-type), V30 (C-type); Capsid: 90 dimers (AB and CC) in T = 3 symmetry; also called wtMNV VP1; MNV VP1; copies: 180
- stoichiometry N: 180 VP1 chains in the capsid

Reference: publication PMC7108717, “Dynamics in the murine norovirus capsid revealed by high-resolution cryo-EM” (PLoS Biology, 2020)
